± gives the uncertainty stated by the source.
Tested on: HEK293T
Experiment: plasma membrane surface immunostaining intensity (anti-HA, deep receptor scanning) (arbitrary fluorescence units); higher = higher plasma membrane expression

Sequence | plasma membrane surface immunostaining intensity (GPCR class: A (Olfactory)) | other results
MTTSPILQLLLRLSLCGLLLQRAETGSKGQTAGELYQRWERYRRECQETLAAAEPPSGLACNGSFDMYVCWDYAAPNATARASCPWYLPWHHHVAAGFVLRQCGSDGQWGLWRDHTQCENPEKNEAFLDQRLILERLQVMYTVGYSLSLATLLLALLILSLFRRLHCTRNYIHINLFTSFMLRAAAILSRDRLLPRPGPYLGDQALALWNQALAACRTAQIVTQYCVGANYTWLLVEGVYLHSLLVLVGGSEEGHFRYYLLLGWGAPALFVIPWVIVRYLYENTQCWERNEVKAIWWIIRTPILMTILINFLIFIRILGILLSKLRTRQMRCRDYRLRLARSTLTLVPLLGVHEVVFAPVTEEQARGALRFAKLGFEIFLSSFQGFLVSVLYCFINKEVQSEIRRGWHHCRLRRSLGEEQRQLPERAFRALPSGSGPGEVPTSRGLSSGTLPGPGNEASRELESYC [GIPR] |  | plasma membrane surface immunostaining intensity (GPCR class: B): 6435 ± 30
MSENGSFANCCEAGGWAVRPGWSGAGSARPSRTPRPPWVAPALSAVLIVTTAVDVVGNLLVILSVLRNRKLRNAGNLFLVSLALADLVVAFYPYPLILVAIFYDGWALGEEHCKASAFVMGLSVIGSVFNITAIAINRYCYICHSMAYHRIYRRWHTPLHICLIWLLTVVALLPNFFVGSLEYDPRIYSCTFIQTASTQYTAAVVVIHFLLPIAVVSFCYLRIWVLVLQARRKAKPESRLCLKPSDLRSFLTMFVVFVIFAICWAPLNCIGLAVAINPQEMAPQIPEGLFVTSYLLAYFNSCLNAIVYGLLNQNFRREYKRILLALWNPRHCIQDASKGSHAEGLQSPAPPIIGVQHQADAL [MTNR1B] |  | plasma membrane surface immunostaining intensity (GPCR class: A): 280 ± 17
MMCFLLIISSILVVFAFVLGNVANGFIALVNVIDWVNTRKISSAEQILTALVVSRIGLLWVMLFLWYATVFNSALYGLEVRIVASNAWAVTNHFSMWLAASLSIFCLLKIANFSNLISLHLKKRIKSVVLVILLGPLVFLICNLAVITMDERVWTKEYEGNVTWKIKLRNAIHLSSLTVTTLANLIPFTLSLICFLLLICSLCKHLKKMRLHSKGSQDPSTKVHIKALQTVTSFLMLFAIYFLCIITSTWNLRTQQSKLVLLLCQTVAIMYPSFHSFILIMGSRKLKQTFLSVLWQMTR [TAS2R19] |  | plasma membrane surface immunostaining intensity (GPCR class: Taste): 370 ± 230
MLNFTDVTEFILLGLTSRREWQVLFFIIFLVVYIITMVGNIGMMVLIKVSPQLNNPMYFFLSHLSFVDVWFSSNVTPKMLENLLSDKKTITYAGCLVQCFFFIALVHVEIFILAAMAFDRYMAIGNPLLYGSKMSRVVCIRLITFPYIYGFLTSLAATLWTYGLYFCGKIEINHFYCADPPLIKMACAGTFVKEYTMIILAGINFTYSLTVIIISYLFILIAILRMRSAEGRQKAFSTCGSHLTAVIIFYGTLIFMYLRRPTEESVEQGKMVAVFYTTVIPMLNPMIYSLRNKDVKKAMMKVISRSC [OR5M3] | 120 ± 24 | 
MEKWNHTSNDFILLGLLPPNQTGIFLLCLIILIFFLASVGNSAMIHLIHVDPRLHTPMYFLLSQLSLMDLMYISTTVPKMAYNFLSGQKGISFLGCGVQSFFFLTMACSEGLLLTSMAYDRYLAICHSLYYPIRMSKMMCVKMIGGSWTLGSINSLAHTVFALHIPYCRSRAIDHFFCDVPAMLLLACTDTWVYEYMVFVSTSLFLLFPFIGITSSCGRVLFAVYHMHSKEGRKKAFTTISTHLTVVIFYYAPFVYTYLRPRNLRSPAEDKILAVFYTILTPMLNPIIYSLRNKEVLGAMRRVFGIFSFLKE [OR2L13] | 139 ± 4.1 | 
MYKDCIESTGDYFLLCDAEGPWGIILESLAILGIVVTILLLLAFLFLMRKIQDCSQWNVLPTQLLFLLSVLGLFGLAFAFIIELNQQTAPVRYFLFGVLFALCFSCLLAHASNLVKLVRGCVSFSWTTILCIAIGCSLLQIIIATEYVTLIMTRGMMFVNMTPCQLNVDFVVLLVYVLFLMALTFFVSKATFCGPCENWKQHGRLIFITVLFSIIIWVVWISMLLRGNPQFQRQPQWDDPVVCIALVTNAWVFLLLYIVPELCILYRSCRQECPLQGNACPVTAYQHSFQVENQELSRARDSDGAEEDVALTSYGTPIQPQTVDPTQECFIPQAKLSPQQDAGGV [GPRC5D] |  | plasma membrane surface immunostaining intensity (GPCR class: C): 6410 ± 68
MPNFTDVTEFTLLGLTCRQELQVLFFVVFLAVYMITLLGNIGMIILISISPQLQSPMYFFLSHLSFADVCFSSNVTPKMLENLLSETKTISYVGCLVQCYFFIAVVHVEVYILAVMAFDRYMAGCNPLLYGSKMSRTVCVRLISVPYVYGFSVSLICTLWTYGLYFCGNFEINHFYCADPPLIQIACGRVHIKEITMIVIAGINFTYSLSVVLISYTLIVVAVLRMRSADGRRKAFSTCGSHLTAVSMFYGTPIFMYLRRPTEESVEQGKMVAVFYTTVIPMLNPMIYSLRNKDVKEAVNKAITKTYVRQ [OR5M9] | 133 ± 54 | 
MDSGPLWDANPTPRGTLSAPNATTPWLGRDEELAKVEIGVLATVLVLATGGNLAVLLTLGQLGRKRSRMHLFVLHLALTDLAVALFQVLPQLLWDITYRFQGPDLLCRAVKYLQVLSMFASTYMLLAMTLDRYLAVCHPLRSLQQPGQSTYLLIAAPWLLAAIFSLPQVFIFSLREVIQGSGVLDCWADFGFPWGPRAYLTWTTLAIFVLPVTMLTACYSLICHEICKNLKVKTQAWRVGGGGWRTWDRPSPSTLAATTRGLPSRVSSINTISRAKIRTVKMTFVIVLAYIACWAPFFSVQMWSVWDKNAPDEDSTNVAFTISMLLGNLNSCCNPWIYMGFNSHLLPRPLRHLACCGGPQPRMRRRLSDGSLSSRHTTLLTRSSCPATLSLSLSLTLSGRPRPEESPRDLELADGEGTAETIIF [AVPR1B] |  | plasma membrane surface immunostaining intensity (GPCR class: A): 665 ± 110
MEPEINCSELCDSFPGQELDRRPLHDLCKTTITSSHHSSKTISSLSPVLLGIVWTFLSCGLLLILFFLAFTIHCRKNRIVKMSSPNLNIVTLLGSCLTYSSAYLFGIQDVLVGSSMETLIQTRLSMLCIGTSLVFGPILGKSWRLYKVFTQRVPDKRVIIKDLQLLGLVAALLMADVILLMTWVLTDPIQCLQILSVSMTVTGKDVSCTSTSTHFCASRYSDVWIALIWGCKGLLLLYGAYLAGLTGHVSSPPVNQSLTIMVGVNLLVLAAGLLFVVTRYLHSWPNLVFGLTSGGIFVCTTTINCFIFIPQLKQWKAFEEENQTIRRMAKYFSTPNKSFHTQYGEEENCHPRGEKSSMERLLTEKNAVIESLQEQVNNAKEKIVRLMSAECTYDLPEGAAPPASSPNKDVQAVASVHTLAAAQGPSGHLSDFQNDPGMAARDSQCTSGPSSYAQSLEGPGKDSSFSPGKEEKISDSKDFSDHLDSGCSQKPWTEQSLGPERGDQVPMNPSQSLLPERGGSDPQRQRHLENSEEPPERRSRVSSVIREKLQEVLQDLGLGPEASLSTAPSCHQQTWKNSAAFSPQKMPLSKELGFSPYMVRRRRAAQRARSHFPGSAPSSVGHRANRTVPGAHSRLHVQNGDSPSLAPQTTDSRVRRPSSRKPSLPSDPQDRPGTLEGSKQSQTEPEGARGSKAAFLRQPSGSGRAPSPAAPCLSKASPDLPEQWQLWPPVPSGCASLSSQHSYFDTESSSSDEFFCRCHRPYCEICFQSSSDSSDSGTSDTDPEPTGGLASWEKLWARSKPIVNFKDDLKPTLV [GPR156] |  | plasma membrane surface immunostaining intensity (GPCR class: C): 352 ± 30
MEHTHAHLAANSSLSWWSPGSACGLGFVPVVYYSLLLCLGLPANILTVIILSQLVARRQKSSYNYLLALAAADILVLFFIVFVDFLLEDFILNMQMPQVPDKIIEVLEFSSIHTSIWITVPLTIDRYIAVCHPLKYHTVSYPARTRKVIVSVYITCFLTSIPYYWWPNIWTEDYISTSVHHVLIWIHCFTVYLVPCSIFFILNSIIVYKLRRKSNFRLRGYSTGKTTAILFTITSIFATLWAPRIIMILYHLYGAPIQNRWLVHIMSDIANMLALLNTAINFFLYCFISKRFRTMAAATLKAFFKCQKQPVQFYTNHNFSITSSPWISPANSHCIKMLVYQYDKNGKPIKVSP [GPR139] |  | plasma membrane surface immunostaining intensity (GPCR class: A): 3010 ± 800
METQNLTVVTEFILLGLTQSQDAQLLVFVLVLIFYLIILPGNFLIIFTIKSDPGLTAPLYFFLGNLALLDASYSFIVVPRMLVDFLSEKKVISYRSCITQLFFLHFLGAGEMFLLVVMAFDRYIAICRPLHYSTIMNPRACYALSLVLWLGGFIHSIVQVALILHLPFCGPNQLDNFFCDVPQVIKLACTNTFVVELLMVSNSGLLSLLCFLGLLASYAVILCRIREHSSEGKSKAISTCTTHIIIIFLMFGPAIFIYTCPFQAFPADKVVSLFHTVIFPLMNPVIYTLRNQEVKASMRKLLSQHMFC [OR4N5] | 216 ± 66 | 
MCWTMPSPFTGSSTRNMESGNQSTVTEFIFTGFPQLQDGSLLYFFPLLFIYTFIIIDNLLIFSAVRLDTHLHNPMYNFISIFSFLEIWYTTATIPKMLSNLISEKKAISMTGCILQMYFFHSLENSEGILLTTMAIDRYVAICNPLRYQMIMTPRLCAQLSAGSCLFGFLILLPEIVMISTLPFCGPNQIHQIFCDLVPVLSLACTDTSMILIEDVIHAVTIIITFLIIALSYVRIVTVILRIPSSEGRQKAFSTCAGHLMVFPIFFGSVSLMYLRFSDTYPPVLDTAIALMFTVLAPFFNPIIYSLRNKDMNNAIKKLFCLQKVLNKPGG [OR6K3] | 197 ± 66 | 
MAWENQTFNSDFILLGIFNHSPTHTFLFFLVLAIFSVAFMGNSVMVLLIYLDTQLHTPMYFLLSQLFLMDLMLICSTVPKMAFNYLSGSKSISMAGCATQIFFYVSLLGSECFLLAVMSYDRYIAICHPLRYTNLMRPKICGLMTAFSWILGSMDAIIDAVATFSFSYCGSREIAHFFCDFPSLLILSCNDTSIFEKVLFICCIVMIVFPVAIIIASYARVILAVIHMGSGEGRRKAFTTCSSHLMVVGMYYGAGLFMYIRPTSDRSPMQDKLVSVFYTILTPMLNPLIYSLRNKEVTRALRKVLGKGKCGE [OR2M5] | 111 ± 20 | 
MEKANETSPVMGFVLLRLSAHPELEKTFFVLILLMYLVILLGNGVLILVTILDSRLHTPMYFFLGNLSFLDICFTTSSVPLVLDSFLTPQETISFSACAVQMALSFAMAGTECLLLSMMAFDRYVAICNPLRYSVIMSKAAYMPMAASSWAIGGAASVVHTSLAIQLPFCGDNVINHFTCEILAVLKLACADISINVISMEVTNVIFLGVPVLFISFSYVFIITTILRIPSAEGRKKVFSTCSAHLTVVIVFYGTLFFMYGKPKSKDSMGADKEDLSDKLIPLFYGVVTPMLNPIIYSLRNKDVKAAVRRLLRPKGFTQ [OR2S2] | 120 ± 24 | 
MGTCDIVTEANISSGPESNTTGITAFSMPSWQLALWATAYLALVLVAVTGNAIVIWIILAHRRMRTVTNYFIVNLALADLCMAAFNAAFNFVYASHNIWYFGRAFCYFQNLFPITAMFVSIYSMTAIAADRYMAIVHPFQPRLSAPSTKAVIAGIWLVALALASPQCFYSTVTMDQGATKCVVAWPEDSGGKTLLLYHLVVIALIYFLPLAVMFVAYSVIGLTLWRRAVPGHQAHGANLRHLQAMKKFVKTMVLVVLTFAICWLPYHLYFILGSFQEDIYCHKFIQQVYLALFWLAMSSTMYNPIIYCCLNHRFRSGFRLAFRCCPWVTPTKEDKLELTPTTSLSTRVNRCHTKETLFMAGDTAPSEATSGEAGRPQDGSGLWFGYGLLAPTKTHVEI [TACR2] |  | plasma membrane surface immunostaining intensity (GPCR class: A): 474 ± 41
MGKENCTTVAEFILLGLSDVPELRVCLFLLFLLIYGVTLLANLGMIALIQVSSRLHTPMYFFLSHLSSVDFCYSSIIVPKMLANIFNKDKAISFLGCMVQFYLFCTCVVTEVFLLAVMAYDRFVAICNPLLYTVTMSWKVRVELASCCYFCGTVCSLIHLCLALRIPFYRSNVINHFFCDLPPVLSLACSDITVNETLLFLVATLNESVTIMIILTSYLLILTTILKMGSAEGRHKAFSTCASHLTAITVFHGTVLSIYCRPSSGNSGDADKVATVFYTVVIPMLNSVIYSLRNKDVKEALRKVMGSKIHS [OR5L1] | 145 ± 28 | 

Reference: the supplement of paper PMC12458215
